Assay [1] deals with pEY. Description: In vitro kinase library screen: activity towards pEY. The format is biochemical. Particulars: 5 ul of expressed protein. The method in brief:
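Kinases made by in vitro transcription/translation, immobilised on streptavidin/avidin plates and washed with Tris/Triton and high-salt buffers. Incubated overnight at room temperature with 5 nM pEY, 100 µM ATP, Mg2+/Mn2+ and vanadate at pH 7.4. Phospho-pEY captured with biotinylated PY20 and detected by Sulfo-TAG anti-phosphotyrosine ECL.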

The subject of assay [2] is autophosphorylation (phosphotyrosine). Description: In vitro kinase library screen: autophosphorylation. The format is biochemical. The essentials: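 Biotinylated SYK and EphA7 from in vitro transcription/translation, immobilized on streptavidin/avidin plates; autophosphorylation overnight at room temperature with 5 mM MgCl2, 5 mM MnCl2, 100 μM ATP, pH 7.4. Phosphotyrosine detected by Sulfo-TAG anti-phosphotyrosine (45 min) and ECL read-out.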

B1: 3482498: IMAGE clone protein: Tek, endothelial-specific receptor tyrosine kinase (protein, UniProt Q02858 23-1122, looked up)
Angiopoietin-1 receptor: AMDLILINSLPLVSDAETSLTCIASGWHPHEPITIGRDFEALMNQHQDPLEVTQDVTREWAKKVVWKREKASKINGAYFCEGRVRGQAIRIRTMKMRQQASFLPATLTMTVDRGDNVNISFKKVLIKEEDAVIYKNGSFIHSVPRHEVPDILEVHLPHAQPQDAGVYSARYIGGNLFTSAFTRLIVRRCEAQKWGPDCSRPCTTCKNNGVCHEDTGECICPPGFMGRTCEKACEPHTFGRTCKERCSGPEGCKSYVFCLPDPYGCSCATGWRGLQCNEACPSGYYGPDCKLRCHCTNEEICDRFQGCLCSQGWQGLQCEKEGRPRMTPQIEDLPDHIEVNSGKFNPICKASGWPLPTSEEMTLVKPDGTVLQPNDFNYTDRFSVAIFTVNRVLPPDSGVWVCSVNTVAGMVEKPFNISVKVLPEPLHAPNVIDTGHNFAIINISSEPYFGDGPIKSKKLFYKPVNQAWKYIEVTNEIFTLNYLEPRTDYELCVQLARPGEGGEGHPGPVRRFTTASIGLPPPRGLSLLPKSQTALNLTWQPIFTNSEDEFYVEVERRSLQTTSDQQNIKVPGNLTSVLLSNLVPREQYTVRARVNTKAQGEWSEELRAWTLSDILPPQPENIKISNITDSTAMVSWTIVDGYSISSIIIRYKVQGKNEDQHIDVKIKNATVTQYQLKGLEPETTYHVDIFAENNIGSSNPAFSHELRTLPHSPASADLGGGKMLLIAILGSAGMTCITVLLAFLIMLQLKRANVQRRMAQAFQNREEPAVQFNSGTLALNRKAKNNPDPTIYPVLDWNDIKFQDVIGEGNFGQVLKARIKKDGLRMDAAIKRMKEYASKDDHRDFAGELEVLCKLGHHPNIINLLGACEHRGYLYLAIEYAPHGNLLDFLRKSRVLETDPAFAIANSTASTLSSQQLLHFAADVARGMDYLSQKQFIHRDLAARNILVGENYIAKIADFGLSRGQEVYVKKTMGRLPVRWMAIESLNYSVYTTNSDVWSYGVLLWEIVSLGGTPYCGMTCAELYEKLPQGYRLEKPLNCDDEVYDLMRQCWREKPYERPSFAQILVSLNRMLEERKTYVNTTLYEKFTYAGIDCSAEEAA
In the case of B1, in assay [1], the HTS signal is 10,287. Further, in assay [2], the ECL signal is 84,706.

(Values after patent US7063946B2, “Methods, reagents, kits and apparatus for protein function analysis” (Meso Scale Technologies, LLC., priority 2001, dated 2006).)
